Reference: US20230330257A1 (BEIJING TIANNUOJIANCHENG PHARMA TECH, published 2023)

T1: human CD20 (human, UniProt P11836 1-297)
T1 construct: whole, on cells; also called CD20 receptor; CHO-human CD20 (clone 3G6)
T1 sequence (looked up): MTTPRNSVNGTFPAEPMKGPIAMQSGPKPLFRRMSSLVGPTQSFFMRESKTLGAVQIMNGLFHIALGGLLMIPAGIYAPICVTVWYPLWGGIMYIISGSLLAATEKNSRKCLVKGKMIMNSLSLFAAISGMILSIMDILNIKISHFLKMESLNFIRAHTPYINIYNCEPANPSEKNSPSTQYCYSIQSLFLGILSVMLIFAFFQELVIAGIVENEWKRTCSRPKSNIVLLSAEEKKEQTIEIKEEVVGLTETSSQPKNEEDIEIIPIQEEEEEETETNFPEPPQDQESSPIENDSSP

T2: recombinant human CD3εγ-Fc heterodimer (human)
T2 construct: Extracellular regions of CD3γ and CD3ε as Fc hole/knob heterodimer; also called human CD3εγ protein; recombinant human CD3γ/ε antigen
T2 chain 1: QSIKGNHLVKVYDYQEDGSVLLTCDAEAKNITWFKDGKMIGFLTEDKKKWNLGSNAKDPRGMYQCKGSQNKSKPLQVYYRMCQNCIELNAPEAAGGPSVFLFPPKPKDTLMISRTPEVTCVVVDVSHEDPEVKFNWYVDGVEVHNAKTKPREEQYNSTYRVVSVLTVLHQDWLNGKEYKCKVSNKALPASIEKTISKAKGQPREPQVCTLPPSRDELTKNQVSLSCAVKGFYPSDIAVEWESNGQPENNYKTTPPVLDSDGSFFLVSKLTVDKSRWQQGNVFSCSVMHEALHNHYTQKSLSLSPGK
T2 chain 2: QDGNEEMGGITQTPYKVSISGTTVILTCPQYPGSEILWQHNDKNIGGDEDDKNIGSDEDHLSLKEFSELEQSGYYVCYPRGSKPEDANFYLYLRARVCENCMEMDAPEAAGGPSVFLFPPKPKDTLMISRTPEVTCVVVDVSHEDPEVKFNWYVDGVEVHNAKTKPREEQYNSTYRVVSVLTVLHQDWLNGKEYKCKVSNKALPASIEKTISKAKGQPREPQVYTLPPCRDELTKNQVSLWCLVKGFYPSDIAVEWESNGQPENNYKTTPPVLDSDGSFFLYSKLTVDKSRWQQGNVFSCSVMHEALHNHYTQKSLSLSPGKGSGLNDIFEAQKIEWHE


Biological target: T1, human CD20
Experiment: flow cytometry on Raji cells, Alexa Fluor 647 goat anti-human IgG Fc
Description: (§1) A lymphoma cell line Raji and Daudi cells in the logarithmic growth phase were taken, 200 μg/mL mouse IgG (Jackson ImmunoResearch) was added, and the mixture was blocked for 30 min. 5×10⁴ cells and 50 μL, of gradient-diluted antibody (the initial concentration of 200 nM, 5-fold dilution, a total of 8 gradients) were added to each well of a 96-well U-shaped plate, and incubated on ice for 45 min. After the cells were washed, 50 μL, of Alexa Fluro647-labelled goat anti-human IgG Fc (1: 300 dilution) was added to each well, and the mixture was incubated on ice for 45 min. 60 μL, of PI (Sigma, P4170) was added to each well, and the mixture was incubated for 5 min and detected by using a flow cytometer (iQue Screener).

Binder	binding result
Mab001 (antibody, V domains shown, also called humanized Mab001 antibody; humanized anti-CD20 antibody) VH: QVQLVQSGAEVKKPGSSVKVSCKASGYTFTSYNMHWVRQAPGQGLEWMGAIYPGNGDTSYNQKFQGRVTLTADKSSSTAYMELSSLRSEDTAVYYCARSTYYGGDWYFNVWGQGTLVTVSS VL: EIVLTQSPGTLSLSPGERATLSCRASSSVSYIHWFQQKPGQAPRPLIYATSNLASGIPDRFSGSGSGTDYTLTISRLEPEDFAVYYCQQWTSNPPTFGQGTKLEIK	binds
Mab002 (antibody, V domains shown, also called humanized Mab002 antibody; humanized anti-CD20 antibody) VH: QVQLVQSGAEVKKPGSSVKVSCKASGYTFTSYNMHWVRQAPGQGLEWMGAIYPGNGDTSYNQKFQGRVTLTADKSSSTAYMELSSLRSEDTAVYYCARSTYYGGDWYFDYWGQGTLVTVSS VL: EIVLTQSPGTLSLSPGERATLSCRASSSVSYIHWFQQKPGQAPRPLIYATSNLASGIPDRFSGSGSGTDYTLTISRLEPEDFAVYYCQQWTSNPPTFGQGTKLEIK	binds

Biological target: T1, human CD20
Experiment: flow cytometry on Daudi cells, Alexa Fluor 647 goat anti-human IgG Fc
Description: as §1

Binder	EC50 (read off the curve)
Mab005 (antibody, V domains shown, also called humanized Mab005 antibody; humanized anti-CD20 antibody) VH: EVQLLESGGGLVQPGGSLRLSCAASGFTFNDYAMHWVRQAPGKGLEWVSTISWNSGSIGYADSVKGRFTISRDNSKNTLYLQMNSLRAEDTAVYYCAKDIQYGNYYYGMDVWGQGTLVTVSS VL: EIVLTQSPGTLSLSPGERATLSCRASQSVSSYLAWYQQKPGQAPRLLIYDASNRATGIPDRFSGSGSGTDFTLTISRLEPEDFAVYYCQQRSNWPITFGQGTKLEIK	~10000 pM
Mab004 (antibody, V domains shown, also called humanized Mab004 antibody; humanized anti-CD20 antibody) VH: EVQLLESGGGLVQPGGSLRLSCAASGFTFNDYAMHWVRQAPGKGLEWVSTISWNSGSIGYADSVKGRFTISRDNAKKTLYLQMNSLRAEDTAVYYCAKDIQYGNYYYGMDVWGQGTLVTVSS VL: EIVLTQSPGTLSLSPGERATLSCRASQSVSSYLAWYQQKPGQAPRLLIYDASNRATGIPDRFSGSGSGTDFTLTISRLEPEDFAVYYCQQRSNWPITFGQGTKLEIK	~10000 pM
Mab006 (antibody, V domains shown, also called humanized Mab006 antibody; humanized anti-CD20 antibody) VH: EVQLLESGGGVVQPGGSLRLSCAASGFTFNDYAMHWVRQAPGKGLEWVSTISWNSGSIGYADSVKGRFTISRDNSKNTLYLQMNSLRAEDTAVYYCAKDIQYGNYYYGMDVWGQGTLVTVSS VL: EIVLTQSPGTLSLSPGERATLSCRASQSVSSYLAWYQQKPGQAPRLLIYDASNRATGIPDRFSGSGSGTDFTLTISRLEPEDFAVYYCQQRSNWPITFGQGTKLEIK	~10000 pM
Mab007 (antibody, V domains shown, also called humanized Mab007 antibody; humanized anti-CD20 antibody) VH: EVQLLESGGGVVQPGGSLRLSCAASGFTFNDYAMHWVRQAPGKGLEWVSTISWNSGSIGYADSVKGRFTISRDNSKNTLYLQMNSLRAEDTAVYYCAKDIQYGNYYYGMDYWGQGTLVTVSS VL: EIVLTQSPGTLSLSPGERATLSCRASQSVSSYLAWYQQKPGQAPRLLIYDASNRATGIPDRFSGSGSGTDFTLTISRLEPEDFAVYYCQQRSNWPITFGQGTKLEIK	~10000 pM

Biological target: T2, recombinant human CD3εγ-Fc heterodimer
Experiment: ELISA, human CD3εγ protein coated on the plate, HRP goat anti-human IgG Fc, A450
Description: Human CD3εγ protein was coated onto a plate and placed at 4° C. overnight.

Binder	EC50 (read off the curve)
aCD3-hVH9/VL2 (antibody, human IgG4, V domains shown, Expressed with an antibody lambda light chain constant region and human IgG4 heavy chain constant regions CH1-CH3; also called humanized anti-CD3 antibody hVH9/VL2) VH: EVQLVESGGGLVQPGGSLRLSCAASGFTFNTYAMNWVRKAPGKGLEWVGRIRSKYNNYATYYADSVKDRFTISRDDSKNSLYLQMNSLKTEDTAVYYCVRHGNFGNSYVSWFAYWGQGTLVTVSS VL: QAVVTQEPSLTVSPGGTVTLTCRSSTGAVTTSNYANWVQEKPGQAPRGLIGGTNKRAPWTPARFSGSLLGGKAALTLSGAQPEDEAEYYCALWYSNLWVFGGGTKLTVL	~600 pM
aCD3-hVH9/VL3 (antibody, human IgG4, V domains shown, Expressed with an antibody lambda light chain constant region and human IgG4 heavy chain constant regions CH1-CH3; also called humanized anti-CD3 antibody hVH9/VL3) VH: EVQLVESGGGLVQPGGSLRLSCAASGFTFNTYAMNWVRKAPGKGLEWVGRIRSKYNNYATYYADSVKDRFTISRDDSKNSLYLQMNSLKTEDTAVYYCVRHGNFGNSYVSWFAYWGQGTLVTVSS VL: EAVVTQEPSLTVSPGGTVTLTCESSDGAVTTSNYANWVQEKPGQAPRGLIGGTNKEAPWTPARFSGSLLGGKAALTLSGAQPEDEAEYYCALWYSNLWVFGGGTKLTVL	~600 pM
aCD3-hVH8/VL5 (antibody, human IgG4, V domains shown, Expressed with an antibody lambda light chain constant region and human IgG4 heavy chain constant regions CH1-CH3; also called aCD3-hVH8/VLS (so in the source)) VH: EVQLVESGGGLVQPGGSLRLSCAASGFTFNTYAMNWVRKAPGKGLEWVGRIRSKYNNYATYYADSVKDRFTISRDDSKNSLYLQMNSLKTEDTAVYYCARHGNFGNSYVSWFAYWGQGTLVTVSS VL: QAVVTQEPSLTVSPGGTVTLTCRSSTGAVTTSNYANWVQEKPGQAPRGLIGGTNKRAPWTPARFSGSLLGGKAALTITGAQAEDEAEYYCVLWYSNLWVFGGGTKLTVL	~600 pM
aCD3-hVH9/VL1 (antibody, human IgG4, V domains shown, Expressed with an antibody lambda light chain constant region and human IgG4 heavy chain constant regions CH1-CH3; also called humanized anti-CD3 antibody hVH9/VL1) VH: EVQLVESGGGLVQPGGSLRLSCAASGFTFNTYAMNWVRKAPGKGLEWVGRIRSKYNNYATYYADSVKDRFTISRDDSKNSLYLQMNSLKTEDTAVYYCVRHGNFGNSYVSWFAYWGQGTLVTVSS VL: QAVVTQEPSLTVSPGGTVTLTCRSSTGAVTTSNYANWVQQKPGQAPRGLIGGTNKRAPWTPARFSGSLLGGKAALTLSGAQPEDEAEYYCALWYSNLWVFGGGTKLTVL	~600 pM
aCD3-hVH8/VL1 (antibody, human IgG4, V domains shown, Expressed with an antibody lambda light chain constant region and human IgG4 heavy chain constant regions CH1-CH3; also called humanized anti-CD3 antibody hVH8/VL1) VH: EVQLVESGGGLVQPGGSLRLSCAASGFTFNTYAMNWVRKAPGKGLEWVGRIRSKYNNYATYYADSVKDRFTISRDDSKNSLYLQMNSLKTEDTAVYYCARHGNFGNSYVSWFAYWGQGTLVTVSS VL: QAVVTQEPSLTVSPGGTVTLTCRSSTGAVTTSNYANWVQQKPGQAPRGLIGGTNKRAPWTPARFSGSLLGGKAALTLSGAQPEDEAEYYCALWYSNLWVFGGGTKLTVL	~600 pM
aCD3-hVH1/VL5 (antibody, human IgG4, V domains shown, Expressed with an antibody lambda light chain constant region and human IgG4 heavy chain constant regions CH1-CH3; also called humanized anti-CD3 antibody hVH1/VL5) VH: EVQLVESGGGLVQPGGSLRLSCAASGFTFNTYAMNWVRQAPGKGLEWVSRIRSKYNNYATYYADSVKDRFTISRDDSKNTLYLQMNSLKTEDTAVYYCVRHGNFGNSYVSWFAYWGQGTLVTVSS VL: QAVVTQEPSLTVSPGGTVTLTCRSSTGAVTTSNYANWVQEKPGQAPRGLIGGTNKRAPWTPARFSGSLLGGKAALTITGAQAEDEAEYYCVLWYSNLWVFGGGTKLTVL	~600 pM
aCD3-hVH9/VL5 (antibody, human IgG4, V domains shown, Expressed with an antibody lambda light chain constant region and human IgG4 heavy chain constant regions CH1-CH3; also called humanized anti-CD3 antibody hVH9/VL5) VH: EVQLVESGGGLVQPGGSLRLSCAASGFTFNTYAMNWVRKAPGKGLEWVGRIRSKYNNYATYYADSVKDRFTISRDDSKNSLYLQMNSLKTEDTAVYYCVRHGNFGNSYVSWFAYWGQGTLVTVSS VL: QAVVTQEPSLTVSPGGTVTLTCRSSTGAVTTSNYANWVQEKPGQAPRGLIGGTNKRAPWTPARFSGSLLGGKAALTITGAQAEDEAEYYCVLWYSNLWVFGGGTKLTVL	~500 pM
